The values below come from patent US20140120106A1, “Stimulation of Arterial Collateral Growth and Lymphogenesis” (YALE UNIVERSITY, priority 2011, published 2014).

The target in this assay is T1, HA-tagged human Raf1 S259A (human, UniProt P04049 1-648).
T1 construct: Overexpressed in HUVEC by lentivirus, immunoprecipitated from Triton lysates with anti-HA; also called Raf1SA; RAF1 Ser259 to Ala259 mutant; not shown: HA (hemagglutinin) tag
Description: co-immunoprecipitation (anti-HA) from lentivirus-infected HUVEC lysates, western blot.

B1: 14-3-3 (other, human, UniProt P63104 1-245, looked up)
chain: MDKNELVQKAKLAEQAERYDDMAACMKSVTEQGAELSNEERNLLSVAYKNVVGARRSSWRVVSSIEQKTEGAEKKQQMAREYREKIETELRDICNDVLSLLEKFLIPNASQAESKVFYLKMKGDYYRYLAEVAAGDDKKGIVDQSQQAYQEAFEISKKEMQPTHPIRLGLALNFSVFYYEILNSPEKACSLAKTAFDEAIAELDTLSEESYKDSTLIMQLLRDNLTLWTSDTQGDEAEAGEGGEN
notes: The results speak only of '14-3-3'; the zeta isoform is inferred from the antibody list; Endogenous protein in the cell lysate; also called 14-3-3 protein; 14-3-3ζ
Turning to B1, the binding result is recorded as “no binding”.
